# In paper PMC9695642, “Conservation of Importin α Function in Apicomplexans: Ivermectin and GW5074 Target Plasmodium falciparum Importin α and Inhibit Parasite Growth in Culture” (International Journal of Molecular Sciences, 2022):
# Experiments:
# [1] = biological target: His-tagged GCN5-NLS-GFP (NLS of T. gondii histone acetyltransferase GCN5 fused to GFP) (Toxoplasma gondii); assay: AlphaScreen or HTRF; biotinylated IMPαs titrated against His-tagged NLS-GFPs (30 nM); apparent dissociation constant
# [2] = biological target: His-tagged TGS1-NLS-GFP (NLS of P. falciparum trimethylguanosine synthase fused to GFP) (Plasmodium falciparum); assay: as above
binder,measurement,setting,value
"Plasmodium falciparum importin α, biotinylated GST fusion protein (natural protein, biotin (Sulfo-NHS-Biotin reagent)) MDRRIEARRKEFKKNCDDTRRKREDLVVQIRKQQRECQLESKRAMVMANIGFEENNTYNLNYAKGNQNDSTNDSIYNTSSNNSSNTLEMLKKIPTLAIGVRSNEYVTQLNSTRELRKLLSIEKGPPIQEVINSGVVPYIVEFLKYDDKTDLQFEAAWVITNIASGSQEQTKVVIDNNAVPHLVRLLSSEKEDVCEQAVWALGNIAGDSAECREYVLNQNSLPLLLKILRTSHKRTLIRNAAWTLSNLCRGKPAPKFEIVSKALPTLAALIYNDDEEILTDACWTLSYLSDGSNENINSVLDAGVAERVVELLSHCSFLVQTPALRTVGNIVTGDDLQTDVVVKLGAVQKLSCLLNSSKKSIKKEACWALSNITAGNISQIQAVIDNNVIPQLINILMKEDFEVRKEAAWAISNASSGGSELQIEYLVECGAIHSLSNLLDVEDANIISVTLEGLENILEMGENKKLRDNLPTNPYVHLFEECDSVHKIDALQDRKVDNICNKAWKILYKYFPFVINNELNNAQIPLNNVFANTEDAVLNKDFTFD",Kd,[1],2.5 nM
same,Kd,[2],6.6 nM
